In this assay the target is Clathrin triskelion with attached Gd-DTPA-ITC, as assembled into clathrin cages (rat (endogenous in rat liver and brain)) (UniProt P11442). As to the kind of experiment: negative-stain transmission electron microscopy; cages assembled from modified triskelia mixed with AP-2 proteins 3:1 (v/v), dialysed against 50 mM MES Na pH 6.5, 100 mM NaCl, 2 mM DTT at 4°C; cages pelleted at 60,000 rpm and resuspended in 20 mM MES Na pH 6.2, 2 mM DTT; 0.05 mg/ml on carbon-coated grids, 1% uranyl acetate.

“Clathrin triskelion with attached Gd-DTPA-ITC, as assembled into clathrin cages (from UniProt P11442 1-1675; P08081 1-248) (complex)” displayed a stoichiometry N (triskelia per cage) of 36.

For the origin of these results see publication PMC3341379.
